Assay results from patent US11013692B2, “Method of drug formulation based on increasing the affinity of crystalline microparticle surfaces for active agents” (MannKind Corporation, priority 2005, dated 2021).
Where no end group is shown, it is not given here.

Columns and labels:
[1] = Adsorption onto FDKP microparticles at pH 5.0 with increasing salt (sodium chloride); format: physicochemical; details: pH 5.0, 5 mg/mL FDKP microparticles, sodium chloride (FIGS. 8A-8D)
Method: Each sample contained a different quantity of salt (sodium chloride), as indicated under each bar in FIGS. 8A-8D (units are mM). […] After a brief incubation, unbound active agent was removed by filtration and the particles with adsorbed active agent were redissolved. The amount of active agent and particle recovered was quantitated by HPLC, and expressed as a mass ratio (% loading).
This can be interpreted as evidence that the salt competed with the active agent for interaction with the particle surface. As the salt concentration was increased, it competed strongly and effectively for surface binding sites, and essentially displaced the active agent from the particle surfaces. It is also speculated, that decrease binding of the active agent to microparticle may be attributable to Debye shielding.

[2] = Saturation curves for adsorption of active agent onto FDKP microparticles at pH 5.0; format: physicochemical; details: pH 5.0, constant 5 mg/mL FDKP microparticles (FIGS. 7A-7D)
Method: When the hydration water is displaced by adsorption of the active agent, its structure relaxes and produces a net decrease in the ultrasonic velocity through the sample. […] These studies were conducted at pH 5.0 where optimal adsorption of the active agent to microparticles is observed.

[3] = Ultrasonic glacial acetic acid titration of FDKP particles + insulin; format: physicochemical; details: 10 mg/mL FDKP, 1 mg/mL insulin; reduced interaction below about pH 2.9
Method: This suspension was introduced into an ultrasonic spectrometer. While stirring gently, glacial acetic acid was gradually added in 5 μL aliquots to lower the pH. At each step in the titration ultrasonic data was collected.
The change in ultrasonic velocity was related (proportional) to the amount of surface area (hydration water) of the particles and/or macromolecules in the sample. […] This additional surface area was from free insulin in the suspension.

[4] = Insulin binding to FDKP particles at different pH (unbound insulin in supernatant by HPLC); format: physicochemical
[5] = Resuspension of dried active agent-coated FDKP microparticles in acid solution or water (filtration, HPLC); format: physicochemical; details: for Resuspended in Acidic solution, integrated HPLC peak area / Resuspended in water, integrated HPLC peak area: filtrate; for Resuspended in Acidic solution, integrated HPLC peak area / Redissolved after filtering away acidic solution, integrated HPLC peak area: final pH about 2.0, 215 nm; for Resuspended in water, integrated HPLC peak area / Redissolved after filtering away water, integrated HPLC peak area: final pH about 4.5, 215 nm; for Redissolved after filtering away acidic solution, integrated HPLC peak area / Redissolved after filtering away water, integrated HPLC peak area: retained particles dissolved; for Active Agent Standard solution, integrated HPLC peak area: 215 nm
Method: The solvent was filtered from these suspensions and the retained particles were dissolved and collected. The amount of active agent in all of these samples was quantitated by HPLC.
For each of the lots, the active agent was released from the particles in the acidic solution. Therefore, by protonating the surfaces of the microcrystals, the active agent desorbs from the crystal surfaces.

[6] = pH dependence of adsorption onto FDKP microparticles with excess protein (retentate mass ratio by HPLC); format: physicochemical; details: for type of monolayer formed: 5 mg/mL FDKP, 2 mg/mL protein
Method: (An excess of protein, as referred to herein, is that amount over what is believed to be necessary to form a monolayer covering the accessible surface of the FDKP microparticle). After incubation, non-adsorbed protein was removed by filtration. The solids retained on the filter (retentate) were dissolved and the amounts of FDKP microparticles and protein retained on the filter were quantitated by HPLC. The protein/particle mass ratio was determined from this quantitation.
Insulin was adsorbed (loaded) onto FDKP microparticles in a pH-controlled process by mixing an aqueous suspension of FDKP microparticles with an aqueous solution of insulin. […] The solid particles with adsorbed insulin were recovered from the filter (retentate), dissolved and collected. The amounts of insulin and dissolved FDKP microparticles were quantitated by HPLC. The amount of adsorbed insulin was calculated as a fraction of the total mass of retentate.

[7] = at the concentrations used; cited from earlier work

ghrelin: ghrelin, active agent adsorbed onto FDKP microparticles (GSSFLSPEHQRVQQRKESKKPPAKLQPR; ends and bridges not checked; UniProt Q9UBU3 24-51, looked up)
effect of increasing ionic strength on adsorption [1]: reduced the extent of adsorption

PTH: parathyroid hormone
adsorption as active agent concentration is increased [2]: reached saturation
effect of increasing ionic strength on adsorption [1]: reduced the extent of adsorption

insulin: protein active agent adsorbed onto FDKP microparticles
pH of association of protein with FDKP microparticles [3]: greater than 2.9
pH at which substantially complete binding is achieved ([4]; insulin on FDKP particles): ≥ 4.2
insulin adsorbed from solution onto the particles ([4]; pH 3.6): approximately 75%
Resuspended in Acidic solution, integrated HPLC peak area [5]: 980 mAU * sec
Resuspended in water, integrated HPLC peak area [5]: 4 mAU * sec
Redissolved after filtering away acidic solution, integrated HPLC peak area [5]: 49 mAU * sec
Redissolved after filtering away water, integrated HPLC peak area [5]: 936 mAU * sec
Active Agent Standard solution, integrated HPLC peak area [5]: 1103 mAU * sec
pH dependence of adsorption ([6]; 5 mg/mL FDKP particles at varying pH, excess active agent (FIGS. 4A-D)): increased as a function of pH
type of monolayer formed ([6]; pH 3.5 through pH 4.5): non-continuous monolayers
type of monolayer formed ([6]; pH 5.0): continuous monolayer

Insulin Aspart: a fast-acting type of insulin
Resuspended in Acidic solution, integrated HPLC peak area [5]: 893 mAU * sec
Resuspended in water, integrated HPLC peak area [5]: 0 mAU * sec
Redissolved after filtering away acidic solution, integrated HPLC peak area [5]: 29 mAU * sec
Redissolved after filtering away water, integrated HPLC peak area [5]: 982 mAU * sec
Active Agent Standard solution, integrated HPLC peak area [5]: 1099 mAU * sec

GLP-1: glucagon-like peptide 1
adsorption as active agent concentration is increased [2]: reached saturation
self association [7]: does not self associate
